Experimental data taken from publication PMC11960969, “Mdga2 deficiency leads to an aberrant activation of BDNF/TrkB signaling that underlies autism-relevant synaptic and behavioral changes in mice” (PLOS Biology, 2025).

Columns and labels:
TrkB (TrkB-Flag) = assay: Co-IP of MDGA2 and its truncations with TrkB-Flag in HEK293T cells; format: binding, human; details: HEK293T cells co-transfected with TrkB-Flag and GFP-tagged MDGA2 constructs
Description: Fig 3 MDGA2 interacts with TrkB and suppresses TrkB activity. (A) Primary hippocampal neurons derived from Mdga2^ +/− (Het) mice and their wild-type (WT) littermates at DIV 7 were treated with different doses of BDNF for 30 min. Equal amounts of protein lysates were subjected to immunoprecipitation (IP) with an anti-TrkB antibody, followed by immunoblotting with an anti-phosphotyrosine (pTyr) antibody or the anti-TrkB antibody. The pTyr levels were quantified by densitometry, normalized to total TrkB levels, and then compared to those of WT controls. n = 3 per group. (B) WT mouse brain lysates were subjected to IP with an anti-MDGA2 antibody and a control IgG, and immunoblotted (IB) for the components indicated. mBDNF, mature BDNF; ImBDNF, immature BDNF. (C) Hippocampal neurons from WT mice at DIV 7 were immunostained with antibodies against MDGA2 (red) and TrkB (green), and then counter-stained with DAPI (blue). Images were acquired by a confocal microscope. Scale bar: 10 μm. (D) Surface plasmon resonance (SPR) analysis of the binding between recombinant MDGA2 protein and recombinant TrkB protein. TrkB was immobilized on a Biacore CM5 chip and tested for its binding with MDGA2 at the concentrations indicated. (E) Computer simulation of the binding mode of TrkB and MDGA2. The predicted binding domain of TrkB (the d5 domain) is highlighted by a red square and labeled in brown. The predicted binding domain of MDGA2 (the MAM domain) is highlighted by a red square and labeled in yellow. […] Immunoprecipitated TrkB levels were quantified by densitometry, normalized to input levels, and compared to respective controls (set to one arbitrary units). n = 3 per group. […] Levels of phosphorylated proteins were quantified by densitometry, normalized to respective total protein levels and compared to controls (set to one arbitrary units). n = 6 per group. […] P-values were determined by two-tailed unpaired Student t-test in (A) and one-way ANOVA with Tukey’s multiple comparisons test in (H, I, J). *p < 0.05, **p < 0.01, ***p < 0.001, ns: not significant. […]

hippocampal proteins = assay: DIA quantification proteomics, hippocampus of Mdga2+/- vs WT mice; set-up: species or system mouse; details: S3 Table, downregulated DEPs; for log2FC: Mdga2+/- vs WT mouse hippocampus (HET-HIP-VS-WT-HIP), SE, pvalue and adj_pvalue in own columns c3-c5; for Class: regulation class of the protein, HET-HIP-VS-WT-HIP
Outline: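 Hippocampi from 1.5–2-month-old male Mdga2+/− mice and WT littermates; 100 μg protein trypsin-digested, peptides high-pH fractionated. DDA-built spectral library, DIA by nano-LC–MS/MS with Spectronaut and mProphet QC. DEPs called at fold change >1.1 and p <0.05.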

B1: MDGA2-ΔM1: MDGA2 lacking the N-terminal region (aa 746–833) of MAM domain (protein)
chain: PPTVRIVHSGLACNIEEERYSERVYTIREGETLELTCLVTGHPRPQIRWTKTAGSASDRFQDSSVFNETLRITNIQRHQGGRYYCKAENGLGSPAIKSIRVDVYYLDDPVVTVHQSIGEAKEQFYYERTVFLRCVANSNPPVRYSWRRGQEVLLQGSDKGVEIYEPFFTQGETKILKLKNLRPQDYANYSCIASVRNVCNIPDKMVSFRLSNKTASPSIKLLVDDPIVVNPGEAITLVCVTTGGEPAPSLTWVRSFGTLPEKTVLNGGTLTIPAITSDDAGTYSCIANNNVGNPAKKSTNIIVRALKKGRFWITPDPYHKDDNIQIGREVKISCQVEAVPSEELTFSWFKNGRPLRSSERMVITQTDPDVSPGTTNLDIIDLKFTDFGTYTCVASLKGGGISDISIDVNISSSTVPPNLTVPQEKSPLVTREGDTIELQCQVTGKPKPIILWSRADKEVAMPDGSMQMESYDGTLRIVNVSREMSGMYRCQTSQYNGFNVKPREALVQLIVQYPPAVEPAFLEIRQGQDRSVTMSCRVLRAYPIRVLTYEWRLGNKLLRTGQFDSQEYTEYAVKSLSNENYGVYNCSIINEAGAGRCSFLVTGKAYAPEFYYDTYNPVWQNRHRVYSYSLQWTQMNPDAVDRIVAYRLGIRQAGQQRWWEQEIKINGNIQKGELITYNLTELIKPEAYEVRLTPLTKFGEGDSTIRVIKYSAPVNPHLREAYCFSFFYHMYGQHIGVLNVYLRLKGQTTIENPLWSSSGNKGQRWNEAHVNIYPITSFQLIFEGIRGPGIEGDIAIDDVSIAEGECAKQDLATKNSVD
modifications: left off: GFP, end not stated, kept
notes: MDGA2 lacking the N-terminal region (aa 746–833) of MAM domain
interaction with TrkB (Co-IP) (TrkB (TrkB-Flag)): abolished the interaction between MDGA2 and TrkB

B2: sp¦P05532¦KIT_MOUSE (protein, UniProt P05532 25-979, looked up)
Mast/stem cell growth factor …: SQPSASPGEPSPPSIHPAQSELIVEAGDTLSLTCIDPDFVRWTFKTYFNEMVENKKNEWIQEKAEATRTGTYTCSNSNGLTSSIYVFVRDPAKLFLVGLPLFGKEDSDALVRCPLTDPQVSNYSLIECDGKSLPTDLTFVPNPKAGITIKNVKRAYHRLCVRCAAQRDGTWLHSDKFTLKVRAAIKAIPVVSVPETSHLLKKGDTFTVVCTIKDVSTSVNSMWLKMNPQPQHIAQVKHNSWHRGDFNYERQETLTISSARVDDSGVFMCYANNTFGSANVTTTLKVVEKGFINISPVKNTTVFVTDGENVDLVVEYEAYPKPEHQQWIYMNRTSANKGKDYVKSDNKSNIRYVNQLRLTRLKGTEGGTYTFLVSNSDASASVTFNVYVNTKPEILTYDRLINGMLQCVAEGFPEPTIDWYFCTGAEQRCTTPVSPVDVQVQNVSVSPFGKLVVQSSIDSSVFRHNGTVECKASNDVGKSSAFFNFAFKGNNKEQIQAHTLFTPLLIGFVVAAGAMGIIVMVLTYKYLQKPMYEVQWKVVEEINGNNYVYIDPTQLPYDHKWEFPRNRLSFGKTLGAGAFGKVVEATAYGLIKSDAAMTVAVKMLKPSAHLTEREALMSELKVLSYLGNHMNIVNLLGACTVGGPTLVITEYCCYGDLLNFLRRKRDSFIFSKQEEQAEAALYKNLLHSTEPSCDSSNEYMDMKPGVSYVVPTKTDKRRSARIDSYIERDVTPAIMEDDELALDLDDLLSFSYQVAKGMAFLASKNCIHRDLAARNILLTHGRITKICDFGLARDIRNDSNYVVKGNARLPVKWMAPESIFSCVYTFESDVWSYGIFLWELFSLGSSPYPGMPVDSKFYKMIKEGFRMVSPEHAPAEMYDVMKTCWDADPLKRPTFKQVVQLIEKQISDSTKHIYSNLANCNPNPENPVVVDHSVRVNSVGSSASSTQPLLVHEDA
log2FC (hippocampal proteins): -2.731 | Class (hippocampal proteins): Down

B3: sp¦Q3UH99¦SHSA6_MOUSE (protein, UniProt Q3UH99 31-525, looked up)
Protein shisa-6: ARGRSGNRTLNAGAVGGRRAGGALARGGRELNSTARASGVPEAGSRRGQSAAAAAAAAAAASATVTYETCWGYYDVSGQYDKEFECNNSESGYLYCCGTCYYRFCCKKRHEKLDQRQCTNYQSPVWVQTPSTKVVSPGPENKYDPEKDKTNFTVYITCGVIAFVIVAGVFAKVSYDKAHRPPREMNIHRALADILRQQGPIPIAHCERETISAIDTSPKENTPVRSTSKNHYTPVRTAKQTPGDRQYNHPILSSATQTPTHEKPRMNNILTSATEPYDLSFSRSYQNLAHLPPSYESAVKTNPSKYSSLKRLTDKEADEYYMRRRHLPDLAARGTLPLNVIQMSQQKPLPRERPRRPIRAMSQDRVLSPRRGLPDEFGMPYDRILSDEQLLSTERLHSQDPLLSPERTAFPEQSLSRAISHTDVFVSTPVLDRYRMTKMHSHPSASNNSYATLGQSQTAAKRHAFASRRHNTVEQLHYIPGHHTCYTASKTEVTV
log2FC (hippocampal proteins): -2.769 | Class (hippocampal proteins): Down

B4: sp¦P60755¦MDGA2_MOUSE (protein, UniProt P60755 26-924, looked up)
MAM domain-containing …: PPTVRIVHSGLACNIEEERYSERVYTIREGETLELTCLVTGHPRPQIRWTKTAGSASDRFQDSSVFNETLRITNIQRHQGGRYYCKAENGLGSPAIKSIRVDVYYLDDPVVTVHQSIGEAKEQFYYERTVFLRCVANSNPPVRYSWRRGQEVLLQGSDKGVEIYEPFFTQGETKILKLKNLRPQDYANYSCIASVRNVCNIPDKMVSFRLSNKTASPSIKLLVDDPIVVNPGEAITLVCVTTGGEPTPSLTWVRSFGTLPEKIVLNGGTLTIPAITSDDAGTYSCIANNNVGNPAKKSTNIIVRALKKGRFWITPDPYHKDDNIQIGREVKISCQVEAVPSEELTFSWFKNGRPLRSSERMVITQTDPDVSPGTTNLDIIDLKFTDFGTYTCVASLKGGGISDISIDVNISSSTVPPNLTVPQEKSPLVTREGDTIELQCQVTGKPKPIILWSRADKEVAMPDGTMQMESYDGTLRIVNVSREMSGMYRCQTSQYNGFNVKPREALVQLIVQYPPAVEPAFLEIRQGQDRSVTMSCRVLRAYPIRVLTYEWRLGNKLLRTGQFDSQEYTEYPLKSLSNENYGVYNCSIINEAGAGRCSFLVTGKAYAPEFYYDTYNPVWQNRHRVYSYSLQWTQMNPDAVDRIVAYRLGIRQAGQQRWWEQEIKINGNIQKGELITYNLTELIKPEAYEVRLTPLTKFGEGDSTIRVIKYTGEFHCGFEDGNICLFTQDDTDNFDWTKQSTATRNTKYTPNTGPSADRSGSKEGFYMYIETSRPRLEGEKARLLSPVFSIAPKNPYGPTNSAYCFSFFYHMYGQHIGVLNVYLRLKGQTTIENPLWSSSGNKGQRWNEAHVNIYPITSFQLIFEGIRGPGIEGDIAIDDVSIAEGECAKQDLPTKNSVD
log2FC (hippocampal proteins): -3.064 | Class (hippocampal proteins): Down

B5: sp¦P97333¦NRP1_MOUSE (protein, UniProt P97333 22-923, looked up)
Neuropilin-1: FRSDKCGGTIKIENPGYLTSPGYPHSYHPSEKCEWLIQAPEPYQRIMINFNPHFDLEDRDCKYDYVEVIDGENEGGRLWGKFCGKIAPSPVVSSGPFLFIKFVSDYETHGAGFSIRYEIFKRGPECSQNYTAPTGVIKSPGFPEKYPNSLECTYIIFAPKMSEIILEFESFDLEQDSNPPGGMFCRYDRLEIWDGFPEVGPHIGRYCGQKTPGRIRSSSGVLSMVFYTDSAIAKEGFSANYSVLQSSISEDFKCMEALGMESGEIHSDQITASSQYGTNWSVERSRLNYPENGWTPGEDSYKEWIQVDLGLLRFVTAVGTQGAISKETKKKYYVKTYRVDISSNGEDWISLKEGNKAIIFQGNTNPTDVVLGVFSKPLITRFVRIKPVSWETGISMRFEVYGCKITDYPCSGMLGMVSGLISDSQITASNQADRNWMPENIRLVTSRTGWALPPSPHPYTNEWLQVDLGDEKIVRGVIIQGGKHRENKVFMRKFKIAYSNNGSDWKTIMDDSKRKAKSFEGNNNYDTPELRTFSPLSTRFIRIYPERATHSGLGLRMELLGCEVEAPTAGPTTPNGNPVDECDDDQANCHSGTGDDFQLTGGTTVLATEKPTIIDSTIQSEFPTYGFNCEFGWGSHKTFCHWEHDSHAQLRWSVLTSKTGPIQDHTGDGNFIYSQADENQKGKVARLVSPVVYSQSSAHCMTFWYHMSGSHVGTLRVKLRYQKPEEYDQLVWMVVGHQGDHWKEGRVLLHKSLKLYQVIFEGEIGKGNLGGIAVDDISINNHISQEDCAKPTDLDKKNTEIKIDETGSTPGYEGEGEGDKNISRKPGNVLKTLDPILITIIAMSALGVLLGAVCGVVLYCACWHNGMSERNLSALENYNFELVDGVKLKKDKLNPQSNYSEA
log2FC (hippocampal proteins): -3.13 | Class (hippocampal proteins): Down
